In US8865654B2, “Eye drops” (Santen Pharmaceutical Co., Ltd., priority 2009, dated 2014):
No end group written: not given here.

Experiment: Stability test of eye drop (residual ratio by HPLC after storage at 40° C.)
Format: physicochemical
Conditions: eye drop SSSR acetate 0.003% + FGLM hydrochloride 0.05% (w/v)
Protocol: Each sample (100 mL, eye drop) containing the SSSR acetate at 0.003% (w/v) and the FGLM hydrochloride at 0.05% (w/v) was prepared at a pH in a range of 2.5 to 7.0 and stored at 40° C. The concentrations of the SSSR and the FGLM were measured by the HPLC method after 2 months storage, 3 months storage, and 6 months storage, and the residual ratios of the SSSR and the FGLM were determined, respectively.

For “Phe-Gly-Leu-Met-NH2 (FGLM-NH2) [tetrapeptide at the C-terminal of Substance P, used as hydrochloride]”, the “Residual ratio of FGLM” value (pH 2.5, 40° C., 2 months) was 79%, the “Residual ratio of FGLM” value (pH 2.5, 40° C., 3 months) was 72% and the “Residual ratio of FGLM” value (pH 2.5, 40° C., 6 months) was 54%. For the same substance, the “Residual ratio of FGLM” value (pH 3.0, 40° C., 2 months) was 91%, the “Residual ratio of FGLM” value (pH 3.0, 40° C., 3 months) was 89% and the “Residual ratio of FGLM” value (pH 3.0, 40° C., 6 months) was 79%. The “Residual ratio of FGLM” value (pH 3.5, 40° C., 2 months) was 95%, the “Residual ratio of FGLM” value (pH 3.5, 40° C., 3 months) was 94% and the “Residual ratio of FGLM” value (pH 3.5, 40° C., 6 months) was 90%. For the same substance, the “Residual ratio of FGLM” value (pH 4.0, 40° C., 2 months) was 96%, the “Residual ratio of FGLM” value (pH 4.0, 40° C., 3 months) was 96% and the “Residual ratio of FGLM” value (pH 4.0, 40° C., 6 months) was 94%. The “Residual ratio of FGLM” value (pH 4.5, 40° C., 2 months) was 97%, the “Residual ratio of FGLM” value (pH 4.5, 40° C., 3 months) was 97% and the “Residual ratio of FGLM” value (pH 4.5, 40° C., 6 months) was 96%. For the same substance, the “Residual ratio of FGLM” value (pH 5.0, 40° C., 2 months) was 97%, the “Residual ratio of FGLM” value (pH 5.0, 40° C., 3 months) was 97% and the “Residual ratio of FGLM” value (pH 5.0, 40° C., 6 months) was 97%. The “Residual ratio of FGLM” value (pH 5.5, 40° C., 2 months) was 97%, the “Residual ratio of FGLM” value (pH 5.5, 40° C., 3 months) was 97% and the “Residual ratio of FGLM” value (pH 5.5, 40° C., 6 months) was 96%. The “Residual ratio of FGLM” value (pH 6.0, 40° C., 2 months) was 96%, the “Residual ratio of FGLM” value (pH 6.0, 40° C., 3 months) was 96% and the “Residual ratio of FGLM” value (pH 6.0, 40° C., 6 months) was 95%. For the same substance, the “Residual ratio of FGLM” value (pH 6.5, 40° C., 2 months) was 95%, the “Residual ratio of FGLM” value (pH 6.5, 40° C., 3 months) was 95% and the “Residual ratio of FGLM” value (pH 6.5, 40° C., 6 months) was 93%. For the same substance, the “Residual ratio of FGLM” value (pH 7.0, 40° C., 2 months) was 94%, the “Residual ratio of FGLM” value (pH 7.0, 40° C., 3 months) was 93% and the “Residual ratio of FGLM” value (pH 7.0, 40° C., 6 months) was 90%.
For “Ser-Ser-Ser-Arg (SSSR; printed: Ser-Ser-Ser-Arg) [partial peptide of insulin-like growth factor I, used as acetate]”, the “Residual ratio of SSSR” value (pH 2.5, 40° C., 2 months) was 100%, the “Residual ratio of SSSR” value (pH 2.5, 40° C., 3 months) was 100% and the “Residual ratio of SSSR” value (pH 2.5, 40° C., 6 months) was 100%. For the same substance, the “Residual ratio of SSSR” value (pH 3.0, 40° C., 2 months) was 99%, the “Residual ratio of SSSR” value (pH 3.0, 40° C., 3 months) was 96% and the “Residual ratio of SSSR” value (pH 3.0, 40° C., 6 months) was 98%. The “Residual ratio of SSSR” value (pH 3.5, 40° C., 2 months) was 99%, the “Residual ratio of SSSR” value (pH 3.5, 40° C., 3 months) was 96% and the “Residual ratio of SSSR” value (pH 3.5, 40° C., 6 months) was 93%. The “Residual ratio of SSSR” value (pH 4.0, 40° C., 2 months) was 98%, the “Residual ratio of SSSR” value (pH 4.0, 40° C., 3 months) was 97% and the “Residual ratio of SSSR” value (pH 4.0, 40° C., 6 months) was 92%. The “Residual ratio of SSSR” value (pH 4.5, 40° C., 2 months) was 97%, the “Residual ratio of SSSR” value (pH 4.5, 40° C., 3 months) was 97% and the “Residual ratio of SSSR” value (pH 4.5, 40° C., 6 months) was 89%. The “Residual ratio of SSSR” value (pH 5.0, 40° C., 2 months) was 97%, the “Residual ratio of SSSR” value (pH 5.0, 40° C., 3 months) was 87% and the “Residual ratio of SSSR” value (pH 5.0, 40° C., 6 months) was 81%. For the same substance, the “Residual ratio of SSSR” value (pH 5.5, 40° C., 2 months) was 94%, the “Residual ratio of SSSR” value (pH 5.5, 40° C., 3 months) was 86% and the “Residual ratio of SSSR” value (pH 5.5, 40° C., 6 months) was 80%. For the same substance, the “Residual ratio of SSSR” value (pH 6.0, 40° C., 2 months) was 90%, the “Residual ratio of SSSR” value (pH 6.0, 40° C., 3 months) was 77% and the “Residual ratio of SSSR” value (pH 6.0, 40° C., 6 months) was 68%. For the same substance, the “Residual ratio of SSSR” value (pH 6.5, 40° C., 2 months) was 84%, the “Residual ratio of SSSR” value (pH 6.5, 40° C., 3 months) was 67% and the “Residual ratio of SSSR” value (pH 6.5, 40° C., 6 months) was 51%. The “Residual ratio of SSSR” value (pH 7.0, 40° C., 2 months) was 70%, the “Residual ratio of SSSR” value (pH 7.0, 40° C., 3 months) was 51% and the “Residual ratio of SSSR” value (pH 7.0, 40° C., 6 months) was 35%.
